In patent publication US8889621B2, “Inhibiting binding of FGF23 to the binary FGFR-Klotho complex for the treatment of hypophosphatemia” (New York University, priority 2009, dated 2014):

Target: T1, binary FGFR1c-Klotho complex (UniProt O35082+P11362)
T1 construct: The ectodomain of murine Klotho (A35 to K982) was purified from culture media; FLAG (C); made in house; host or cells: E. coli (FGFR1c, FGF23); HEK293 (Klotho ectodomain)
T1 sequence (P11362 142-365): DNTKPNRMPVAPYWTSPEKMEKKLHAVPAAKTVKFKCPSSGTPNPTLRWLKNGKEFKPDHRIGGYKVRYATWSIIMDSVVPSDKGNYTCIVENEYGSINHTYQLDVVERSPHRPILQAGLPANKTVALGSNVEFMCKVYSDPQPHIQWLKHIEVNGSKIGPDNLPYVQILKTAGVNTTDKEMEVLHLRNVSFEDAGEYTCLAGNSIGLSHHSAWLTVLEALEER
T1 sequence (O35082 35-982): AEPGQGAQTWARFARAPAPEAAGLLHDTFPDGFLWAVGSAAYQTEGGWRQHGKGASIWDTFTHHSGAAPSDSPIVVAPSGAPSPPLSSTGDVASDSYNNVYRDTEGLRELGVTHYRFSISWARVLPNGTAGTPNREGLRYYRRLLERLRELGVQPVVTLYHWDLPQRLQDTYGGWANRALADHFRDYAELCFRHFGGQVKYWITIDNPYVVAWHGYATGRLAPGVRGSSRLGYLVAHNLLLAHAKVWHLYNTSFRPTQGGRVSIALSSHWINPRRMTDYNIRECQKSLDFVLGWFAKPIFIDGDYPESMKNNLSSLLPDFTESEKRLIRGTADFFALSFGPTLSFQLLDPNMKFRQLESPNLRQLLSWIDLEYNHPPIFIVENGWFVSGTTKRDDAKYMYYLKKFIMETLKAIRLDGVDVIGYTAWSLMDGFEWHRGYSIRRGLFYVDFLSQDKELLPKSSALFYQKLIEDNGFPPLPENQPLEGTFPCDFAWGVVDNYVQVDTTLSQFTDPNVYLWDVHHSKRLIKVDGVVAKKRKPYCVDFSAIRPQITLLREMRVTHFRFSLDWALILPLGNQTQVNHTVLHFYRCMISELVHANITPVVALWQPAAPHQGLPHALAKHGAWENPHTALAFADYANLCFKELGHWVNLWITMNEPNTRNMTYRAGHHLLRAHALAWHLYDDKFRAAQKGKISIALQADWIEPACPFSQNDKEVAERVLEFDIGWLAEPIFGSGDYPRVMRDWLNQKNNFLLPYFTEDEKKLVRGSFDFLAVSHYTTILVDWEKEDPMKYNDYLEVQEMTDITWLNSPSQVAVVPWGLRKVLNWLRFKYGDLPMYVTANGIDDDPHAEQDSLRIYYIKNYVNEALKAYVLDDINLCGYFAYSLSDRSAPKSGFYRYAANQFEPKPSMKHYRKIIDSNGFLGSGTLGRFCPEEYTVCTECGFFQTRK
Assay: Reverse SPR competition: FGFR1c-Klotho binding to immobilized FGF23^180-251
Parameters: species or system human FGFR1c, murine Klotho
Conditions: reverse SPR format
Method: A variety of interaction or binding assays can be used to determine that an agent specifically binds the binary FGFR-Klotho complex, such as the SPR interaction analysis described below. One aspect of the present invention utilizes SPR analysis of FGF23 protein/peptide binding to the binary FGFR-Klotho complex. The SPR analysis involved FGF23 protein/peptide immobilization by amine coupling on flow channels of a chip. Proteins were injected over the chip at a flow rate of 50 μl min^−1, and at the end of each protein injection (180 s), HBS-EP buffer (10 mM HEPES-NaOH, pH 7.4, 150 mM NaCl, 3 mM EDTA, 0.005% (v/v) polysorbate 20; 50 μl min^−1) was flowed over the chip to monitor dissociation for 180 s. The chip surface was then regenerated by injecting 50 μl of 2.0 M NaCl in 10 mM sodium acetate, pH 4.5. […] For each protein injection over a FGF23 protein/peptide chip, the nonspecific responses from the FHF1B control flow channel were subtracted from the responses recorded for the flow channel onto which FGF23 protein/peptide was immobilized. […] As a control, competition of FGF23 C-terminal tail peptide in solution with immobilized FGF23 C-terminal tail peptide for binding to the binary FGFR1c-Klotho complex was analyzed. […]

B1: FGF23^180-251: 72-amino acid C-terminal tail of human FGF23 (S180 to I251), expressed in E. coli (protein, listed as Homo sapiens)
chain: SAEDDSERDPLNVLKPRARMTPAPASCSQELPSAEDNSPMASDPLGVVRGGRVNTHAGGTGPEGCRPFAKFI
- inhibition of FGFR1c-Klotho binding to immobilized FGF23^180-251: inhibition

B2: FGF23^28-251: human FGF23 (A28 to I251), bioactive full-length ligand expressed in E. coli (protein, listed as Homo sapiens)
chain: ASPLLGSSWGGLIHLYTATARNSYHLQIHKNGHVDGAPHQTIYSALMIRSEDAGFVVITGVMSRRYLCMDFRGNIFGSHYFDPENCRFQHQTLENGYDVYHSPQYHFLVSLGRAKRAFLPGMNPPPYSQFLSRRNEIPLIHFNTPIPRRHTRSAEDDSERDPLNVLKPRARMTPAPASCSQELPSAEDNSPMASDPLGVVRGGRVNTHAGGTGPEGCRPFAKFI
- inhibition of FGFR1c-Klotho binding to immobilized FGF23^180-251: inhibition
